Test results published in PMC9482650, “Quantitative fragmentomics allow affinity mapping of interactomes” (Nature Communications, 2022).

What was measured:
Test in all cases: holdup assay
Parameters in all cases: key: below the threshold = too weak to quantify, mostly under pKd 3.1 to 4
[1] = biological target: T1, APBA3_1, O96018
T1 sequence (O96018 389-490, limits assumed, looked up): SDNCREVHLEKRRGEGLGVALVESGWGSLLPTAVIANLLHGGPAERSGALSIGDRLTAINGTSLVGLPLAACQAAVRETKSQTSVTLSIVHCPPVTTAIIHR

[2] = biological target: T2, CARD11, Q9BXL7
T2 sequence (Q9BXL7 662-765, limits assumed, looked up): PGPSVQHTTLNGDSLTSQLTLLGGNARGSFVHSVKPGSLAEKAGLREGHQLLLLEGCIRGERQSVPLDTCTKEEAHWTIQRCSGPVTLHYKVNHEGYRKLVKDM

[3] = biological target: T3, DFNB31_1, Q9P202
T3 sequence (Q9P202 135-233, limits assumed, looked up): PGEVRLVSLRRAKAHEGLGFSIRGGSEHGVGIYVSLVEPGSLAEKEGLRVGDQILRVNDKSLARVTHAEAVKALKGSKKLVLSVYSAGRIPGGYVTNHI

[4] = biological target: DLG2_2, Q15700
Chain of DLG2_2, Q15700 (Q15700 189-283): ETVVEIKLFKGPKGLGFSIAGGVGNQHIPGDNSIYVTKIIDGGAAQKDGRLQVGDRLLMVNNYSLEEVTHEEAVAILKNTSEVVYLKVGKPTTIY

[5] = biological target: T4, DVL3, Q92997
T4 sequence (Q92997 244-331, limits assumed, looked up): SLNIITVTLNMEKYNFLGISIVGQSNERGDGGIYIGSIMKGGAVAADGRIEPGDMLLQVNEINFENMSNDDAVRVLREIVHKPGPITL

[6] = biological target: GORASP1, Q9BQQ3
Chain of GORASP1, Q9BQQ3 (Q9BQQ3 1-208): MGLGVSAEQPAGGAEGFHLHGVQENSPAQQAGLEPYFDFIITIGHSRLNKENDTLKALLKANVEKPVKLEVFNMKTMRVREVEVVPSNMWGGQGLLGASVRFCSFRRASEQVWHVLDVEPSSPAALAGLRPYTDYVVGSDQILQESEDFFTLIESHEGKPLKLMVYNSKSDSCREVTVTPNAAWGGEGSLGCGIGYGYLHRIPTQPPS

[7] = biological target: GORASP2, Q9H8Y8
[8] = biological target: T5, GRIP1_2, Q9Y3R0
T5 sequence (Q9Y3R0 145-248, limits assumed, looked up): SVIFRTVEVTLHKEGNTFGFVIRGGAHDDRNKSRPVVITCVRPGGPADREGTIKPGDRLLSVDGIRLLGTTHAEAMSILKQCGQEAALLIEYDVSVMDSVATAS

[9] = biological target: GRIP2_3, Q9C0E4
Chain of GRIP2_3, Q9C0E4 (Q9C0E4 238-339): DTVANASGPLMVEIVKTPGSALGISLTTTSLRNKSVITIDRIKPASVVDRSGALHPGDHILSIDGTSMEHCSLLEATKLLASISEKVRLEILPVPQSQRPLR

[10] = biological target: GRIP2_6, Q9C0E4
Chain of GRIP2_6, Q9C0E4 (Q9C0E4 648-740): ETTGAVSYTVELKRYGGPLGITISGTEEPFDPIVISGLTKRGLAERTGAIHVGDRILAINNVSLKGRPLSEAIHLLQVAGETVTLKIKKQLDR

[11] = biological target: GRIP2_7, Q9C0E4
Chain of GRIP2_7, Q9C0E4 (Q9C0E4 934-1023): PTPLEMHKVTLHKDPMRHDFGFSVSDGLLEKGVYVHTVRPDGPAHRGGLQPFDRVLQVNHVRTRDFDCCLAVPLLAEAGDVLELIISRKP

[12] = biological target: T6, HTRA3, P83110
T6 sequence (P83110 354-453, limits assumed, looked up): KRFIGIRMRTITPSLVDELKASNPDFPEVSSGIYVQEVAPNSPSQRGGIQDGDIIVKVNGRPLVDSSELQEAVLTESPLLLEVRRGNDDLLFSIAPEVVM

[13] = biological target: Inadl_1, Q8NI35
Chain of Inadl_1, Q8NI35 (Q8NI35 113-229): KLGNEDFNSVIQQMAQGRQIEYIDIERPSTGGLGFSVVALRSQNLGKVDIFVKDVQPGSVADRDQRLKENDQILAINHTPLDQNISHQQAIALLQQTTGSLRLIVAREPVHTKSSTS

[14] = biological target: Inadl_4, Q8NI35
Chain of Inadl_4, Q8NI35 (Q8NI35 547-651): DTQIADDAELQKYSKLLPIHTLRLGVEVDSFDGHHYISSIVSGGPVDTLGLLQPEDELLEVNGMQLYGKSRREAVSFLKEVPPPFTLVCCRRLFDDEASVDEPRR

[15] = biological target: Inadl_9, Q8NI35
Chain of Inadl_9, Q8NI35 (Q8NI35 1530-1615): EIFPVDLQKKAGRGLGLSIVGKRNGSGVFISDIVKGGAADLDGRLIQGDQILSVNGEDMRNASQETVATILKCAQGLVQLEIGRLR

[16] = biological target: LAP2, Q96RT1
Chain of LAP2, Q96RT1 (Q96RT1 other isoform, or with tags, fused parts or gaps): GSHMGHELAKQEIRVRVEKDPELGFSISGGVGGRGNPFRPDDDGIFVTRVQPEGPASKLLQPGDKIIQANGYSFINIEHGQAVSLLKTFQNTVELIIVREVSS

[17] = biological target: T7, LIN7A, O14910
T7 sequence (O14910 103-200, limits assumed, looked up): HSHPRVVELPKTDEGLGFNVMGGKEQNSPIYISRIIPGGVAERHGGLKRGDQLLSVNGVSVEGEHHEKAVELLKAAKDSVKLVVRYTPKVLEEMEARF

[18] = biological target: T8, LNX2_2, Q8N448
T8 sequence (Q8N448 334-432, limits assumed, looked up): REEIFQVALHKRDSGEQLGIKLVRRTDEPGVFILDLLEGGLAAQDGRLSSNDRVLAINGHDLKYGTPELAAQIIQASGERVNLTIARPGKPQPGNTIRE

[19] = biological target: MAGI1_1, Q96QZ7
Chain of MAGI1_1, Q96QZ7 (Q96QZ7 1-106): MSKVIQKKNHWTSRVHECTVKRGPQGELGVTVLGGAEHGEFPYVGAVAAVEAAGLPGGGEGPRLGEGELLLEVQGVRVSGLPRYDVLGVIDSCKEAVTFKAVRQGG

[20] = biological target: MAGI2_5, Q86UL8
Chain of MAGI2_5, Q86UL8 (Q86UL8 915-1017): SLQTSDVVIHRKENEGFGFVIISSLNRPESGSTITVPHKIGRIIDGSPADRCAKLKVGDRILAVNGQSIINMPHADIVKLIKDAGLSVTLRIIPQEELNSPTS

[21] = biological target: MAGI2_6, Q86UL8
Chain of MAGI2_6, Q86UL8 (Q86UL8 1141-1229): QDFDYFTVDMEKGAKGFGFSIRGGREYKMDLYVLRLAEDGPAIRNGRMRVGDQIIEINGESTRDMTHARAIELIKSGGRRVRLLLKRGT

[22] = biological target: T9, MPDZ_12, O75970
T9 sequence (O75970 1857-1958, limits assumed, looked up): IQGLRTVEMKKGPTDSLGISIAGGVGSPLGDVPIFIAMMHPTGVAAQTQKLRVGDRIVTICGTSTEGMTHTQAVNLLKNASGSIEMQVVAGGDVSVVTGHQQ

[23] = biological target: NHERF4_4, Q86UT5
Chain of NHERF4_4, Q86UT5 (Q86UT5 464-550): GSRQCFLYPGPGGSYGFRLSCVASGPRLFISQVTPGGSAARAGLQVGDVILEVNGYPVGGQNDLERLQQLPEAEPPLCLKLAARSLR

[24] = biological target: T10, PDZD7_3, Q9H5P4
T10 sequence (Q9H5P4 857-944, limits assumed, looked up): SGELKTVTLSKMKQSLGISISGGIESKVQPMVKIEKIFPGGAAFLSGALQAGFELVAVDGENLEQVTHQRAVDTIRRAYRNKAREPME

[25] = biological target: T11, PDZRN3_1, Q9UPQ7
T11 sequence (Q9UPQ7 244-349, limits assumed, looked up): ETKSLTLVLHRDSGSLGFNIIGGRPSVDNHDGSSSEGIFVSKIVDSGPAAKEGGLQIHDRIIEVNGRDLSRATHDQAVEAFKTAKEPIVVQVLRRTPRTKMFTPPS

[26] = biological target: SCRIB_3, Q14160
Chain of SCRIB_3, Q14160 (Q14160 999-1103): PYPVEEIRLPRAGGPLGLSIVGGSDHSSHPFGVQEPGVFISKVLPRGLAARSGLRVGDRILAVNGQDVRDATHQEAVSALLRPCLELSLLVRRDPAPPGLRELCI

[27] = biological target: TJP2_1, Q9UDY2
Chain of TJP2_1, Q9UDY2 (Q9UDY2 24-128): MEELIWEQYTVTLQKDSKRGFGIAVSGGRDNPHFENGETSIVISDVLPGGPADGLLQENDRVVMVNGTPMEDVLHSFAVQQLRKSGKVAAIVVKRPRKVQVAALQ

[28] = plain residues with an end cap or a label only (N-terminal biotin on a linker: ado-ado)
[29] = plain residues with an end cap or a label only (N-terminal biotin on a linker: (peg)3)

Q: With PLDSQQHTEV [FAT1, Q14517] as the binder, how does the pKd [1, 28] read?
A: below the threshold

Q: And the pKd [2, 28]?
A: below the threshold

Q: What about the pKd [3, 28] of the same binder?
A: 3.85

Q: And the pKd [4, 28]?
A: 4.62

Q: And the pKd [5, 28]?
A: below the threshold

Q: What about the pKd [6, 28] of the same binder?
A: below the threshold

Q: And the pKd [7, 28]?
A: below the threshold

Q: What about the pKd [8, 28] of the same binder?
A: below the threshold

Q: And the pKd [9, 28]?
A: below the threshold

Q: And the pKd [10, 28]?
A: below the threshold

Q: What about the pKd [11, 28] of the same binder?
A: below the threshold

Q: What about the pKd [12, 28] of the same binder?
A: below the threshold

Q: And the pKd [13, 28]?
A: below the threshold

Q: What about the pKd [14, 28] of the same binder?
A: below the threshold

Q: What about the pKd [15, 28] of the same binder?
A: 3.69

Q: What about the pKd [16, 28] of the same binder?
A: 3.61

Q: And the pKd [17, 28]?
A: below the threshold

Q: What about the pKd [18, 28] of the same binder?
A: 4.35

Q: What about the pKd [19, 28] of the same binder?
A: below the threshold

Q: And the pKd [20, 28]?
A: 4.54

Q: And the pKd [21, 28]?
A: 4.26

Q: What about the pKd [22, 28] of the same binder?
A: below the threshold

Q: And the pKd [23, 28]?
A: below the threshold

Q: What about the pKd [24, 28] of the same binder?
A: 4.31

Q: And the pKd [25, 28]?
A: below the threshold

Q: And the pKd [26, 28]?
A: 4.2

Q: And the pKd [27, 28]?
A: below the threshold

Q: Which pKd [1, 29] does the source give for YDEPTTTTSVPL [SARS-Cov2-3a, P0DTC3] here?
A: below the threshold

Q: What about the pKd [2, 29] of the same binder?
A: below the threshold

Q: What about the pKd [3, 29] of the same binder?
A: below the threshold

Q: And the pKd [4, 29]?
A: below the threshold

Q: And the pKd [5, 29]?
A: below the threshold

Q: And the pKd [6, 29]?
A: below the threshold

Q: And the pKd [7, 29]?
A: below the threshold

Q: And the pKd [8, 29]?
A: below the threshold

Q: And the pKd [9, 29]?
A: below the threshold

Q: And the pKd [10, 29]?
A: below the threshold

Q: What about the pKd [11, 29] of the same binder?
A: below the threshold

Q: What about the pKd [12, 29] of the same binder?
A: below the threshold

Q: What about the pKd [13, 29] of the same binder?
A: below the threshold

Q: And the pKd [14, 29]?
A: below the threshold

Q: What about the pKd [15, 29] of the same binder?
A: below the threshold

Q: What about the pKd [16, 29] of the same binder?
A: below the threshold

Q: What about the pKd [17, 29] of the same binder?
A: below the threshold

Q: And the pKd [18, 29]?
A: below the threshold

Q: What about the pKd [19, 29] of the same binder?
A: below the threshold

Q: And the pKd [20, 29]?
A: below the threshold

Q: What about the pKd [21, 29] of the same binder?
A: below the threshold

Q: And the pKd [22, 29]?
A: below the threshold

Q: And the pKd [23, 29]?
A: below the threshold

Q: And the pKd [24, 29]?
A: below the threshold

Q: What about the pKd [25, 29] of the same binder?
A: below the threshold

Q: And the pKd [26, 29]?
A: below the threshold

Q: And the pKd [27, 29]?
A: below the threshold

Q: For RTQSSDSAYV [GJD2, Q9UKL4], which pKd [1, 28] is on record?
A: below the threshold

Q: What about the pKd [2, 28] of the same binder?
A: below the threshold

Q: And the pKd [3, 28]?
A: below the threshold

Q: What about the pKd [4, 28] of the same binder?
A: below the threshold

Q: What about the pKd [5, 28] of the same binder?
A: 3.48

Q: And the pKd [6, 28]?
A: 3.67

Q: And the pKd [7, 28]?
A: 3.78

Q: And the pKd [8, 28]?
A: below the threshold

Q: And the pKd [9, 28]?
A: below the threshold

Q: And the pKd [10, 28]?
A: below the threshold

Q: What about the pKd [11, 28] of the same binder?
A: below the threshold

Q: And the pKd [12, 28]?
A: 4.68

Q: What about the pKd [13, 28] of the same binder?
A: below the threshold

Q: And the pKd [14, 28]?
A: below the threshold

Q: And the pKd [15, 28]?
A: 3.85

Q: What about the pKd [16, 28] of the same binder?
A: below the threshold

Q: What about the pKd [17, 28] of the same binder?
A: below the threshold

Q: And the pKd [18, 28]?
A: 4.65

Q: And the pKd [19, 28]?
A: below the threshold

Q: And the pKd [20, 28]?
A: below the threshold

Q: What about the pKd [21, 28] of the same binder?
A: 3.58

Q: What about the pKd [22, 28] of the same binder?
A: below the threshold

Q: And the pKd [23, 28]?
A: below the threshold

Q: What about the pKd [24, 28] of the same binder?
A: below the threshold

Q: What about the pKd [25, 28] of the same binder?
A: below the threshold

Q: What about the pKd [26, 28] of the same binder?
A: below the threshold

Q: What about the pKd [27, 28] of the same binder?
A: 4.09

Q: How did the pKd [1, 28] turn out when LTAQEQPVYI [APBA1, Q02410] was run?
A: below the threshold

Q: What about the pKd [2, 28] of the same binder?
A: below the threshold

Q: And the pKd [3, 28]?
A: below the threshold

Q: What about the pKd [4, 28] of the same binder?
A: below the threshold

Q: What about the pKd [5, 28] of the same binder?
A: 3.87

Q: What about the pKd [6, 28] of the same binder?
A: 3.87

Q: And the pKd [7, 28]?
A: 4.18

Q: And the pKd [8, 28]?
A: below the threshold

Q: What about the pKd [9, 28] of the same binder?
A: below the threshold

Q: What about the pKd [10, 28] of the same binder?
A: below the threshold

Q: What about the pKd [11, 28] of the same binder?
A: 3.78

Q: What about the pKd [12, 28] of the same binder?
A: 4.41

Q: What about the pKd [13, 28] of the same binder?
A: below the threshold

Q: And the pKd [14, 28]?
A: below the threshold

Q: And the pKd [15, 28]?
A: 4.6

Q: What about the pKd [16, 28] of the same binder?
A: below the threshold

Q: And the pKd [17, 28]?
A: below the threshold

Q: And the pKd [18, 28]?
A: 4.9

Q: What about the pKd [19, 28] of the same binder?
A: below the threshold

Q: And the pKd [20, 28]?
A: below the threshold

Q: What about the pKd [21, 28] of the same binder?
A: below the threshold

Q: What about the pKd [22, 28] of the same binder?
A: below the threshold

Q: What about the pKd [23, 28] of the same binder?
A: below the threshold

Q: What about the pKd [24, 28] of the same binder?
A: below the threshold

Q: What about the pKd [25, 28] of the same binder?
A: below the threshold

Q: What about the pKd [26, 28] of the same binder?
A: below the threshold

Q: And the pKd [27, 28]?
A: below the threshold

Q: Which pKd [1, 28] does the source give for SRPTKGPTLL [PLEKHH2, Q8IVE3] here?
A: below the threshold

Q: What about the pKd [2, 28] of the same binder?
A: below the threshold

Q: And the pKd [3, 28]?
A: below the threshold

Q: And the pKd [4, 28]?
A: below the threshold

Q: And the pKd [5, 28]?
A: below the threshold

Q: And the pKd [6, 28]?
A: 3.78

Q: What about the pKd [7, 28] of the same binder?
A: 3.6

Q: What about the pKd [8, 28] of the same binder?
A: below the threshold

Q: What about the pKd [9, 28] of the same binder?
A: below the threshold

Q: What about the pKd [10, 28] of the same binder?
A: below the threshold

Q: And the pKd [11, 28]?
A: below the threshold

Q: What about the pKd [12, 28] of the same binder?
A: below the threshold

Q: What about the pKd [13, 28] of the same binder?
A: below the threshold

Q: What about the pKd [14, 28] of the same binder?
A: below the threshold

Q: And the pKd [15, 28]?
A: 3.5

Q: What about the pKd [16, 28] of the same binder?
A: below the threshold

Q: What about the pKd [17, 28] of the same binder?
A: below the threshold

Q: What about the pKd [18, 28] of the same binder?
A: below the threshold

Q: And the pKd [19, 28]?
A: below the threshold

Q: What about the pKd [20, 28] of the same binder?
A: below the threshold

Q: What about the pKd [21, 28] of the same binder?
A: below the threshold

Q: And the pKd [22, 28]?
A: below the threshold

Q: What about the pKd [23, 28] of the same binder?
A: 3.89

Q: What about the pKd [24, 28] of the same binder?
A: 4.78

Q: And the pKd [25, 28]?
A: 3.69

Q: What about the pKd [26, 28] of the same binder?
A: 4.41

Q: And the pKd [27, 28]?
A: 3.57
